These results are taken from paper PMC3419727, “Identifying the Hotspots on the Top Faces of WD40-Repeat Proteins from Their Primary Sequences by β-Bulges and DHSW Tetrads” (PLoS ONE, 2012).

Holding throughout (assay): ITC; Fep1 (~1.4 mM) injected, 2 µl each time, into Tup11 WT or mutant (~0.2 mM); 25°C; 1×PBS pH 7.4, 150 mM NaCl; iTC200 (MicroCal); Fep1 into buffer subtracted as background
Common to all, as to conditions: both partners purified
(In ITC the heat of successive injections is recorded.)

Experiment [1] concerns the target T1, S. japonicus Tup11 WD40 domain (301–630) Ile601Ala (S. japonicus, UniProt B6JV84 301-630, Ile601Ala).
T1 construct: Tup11, S. japonicus, WD40 domain, amino acids 301-630
T1 sequence (looked up): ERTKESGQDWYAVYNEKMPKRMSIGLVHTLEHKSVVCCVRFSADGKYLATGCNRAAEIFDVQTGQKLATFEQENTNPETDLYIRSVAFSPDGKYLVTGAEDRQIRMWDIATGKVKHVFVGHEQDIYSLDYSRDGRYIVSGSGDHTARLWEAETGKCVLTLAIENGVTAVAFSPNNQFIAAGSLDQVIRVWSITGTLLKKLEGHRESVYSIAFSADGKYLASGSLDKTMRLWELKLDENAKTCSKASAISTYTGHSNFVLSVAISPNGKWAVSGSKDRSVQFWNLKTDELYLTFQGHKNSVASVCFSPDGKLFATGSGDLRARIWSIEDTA

Experiment [2] has as its target T2, S. japonicus Tup11 WD40 domain (301–630) Tyr426Ala (S. japonicus, UniProt B6JV84 301-630, Tyr426 substituted by Ala).
T2 construct: Tup11, S. japonicus, WD40 domain, amino acids 301-630
T2 sequence (looked up): T1 sequence (looked up) with Y126A, A301I

Experiment [3] concerns the target T3, S. japonicus Tup11 WD40 domain (301–630) Lys575Ala (S. japonicus, UniProt B6JV84 301-630, Lys575Ala).
T3 construct: Tup11, S. japonicus, WD40 domain, amino acids 301-630
T3 sequence (looked up): T1 sequence (looked up) with K275A, A301I

Experiment [4] deals with T4, S. japonicus Tup11 WD40 domain (301–630) Phe557Ala (S. japonicus, UniProt B6JV84 301-630, Phe557Ala).
T4 construct: Tup11, S. japonicus, WD40 domain, amino acids 301-630
T4 sequence (looked up): T1 sequence (looked up) with F257A, A301I

In experiment [5] the target is T5, S. japonicus Tup11 WD40 domain (301–630) Leu524Ala (S. japonicus, UniProt B6JV84 301-630, Leu524Ala).
T5 construct: Tup11, S. japonicus, WD40 domain, amino acids 301-630
T5 sequence (looked up): T1 sequence (looked up) with L224A, A301I

Where a chain is given by its changes, count along the chain named.

B1: C-terminal region of S. pombe Fep1 (amino acids 319–564) (domain or fragment, UniProt Q10134 319-564, looked up)
chain: AAGEPDNNGKVYYSYGPTQEQSILPLPENKHEGLPPYQNEYVPNGIRANQVVYPGQLVAVGNDSSKQLSESTTSNTDNNGVATANQSNPLGMKFHLPPILPVGESVCLPPRTSAKPRIAEGIASLLNPEEPPSNSDKQPSMSNGPKSEVSPSQSQQAPLIQSSTSPVSLQFPPEVQGSNVDKRNYALNVLSQLRSQHDLMIQELHNLNQHIQQIDEWLRSSDNENMASEHIKSSTPAVVASGALQT
notes: Fep1, GATA-factor, S. pombe, C-terminal region, amino acids 319-564
B1: the binding result in experiment [1], in experiment [2], in experiment [4] and in experiment [5] was “binds” in each case. Moreover, the “reduction of binding free energy against wild type” value in experiment [3] was roughly 1.9 kcal/mol.
